The values that follow are results of earlier work, collected in paper PMC3871196.

By Kd is commonly meant the free concentration of one partner at which half of the binding sites on the other are occupied at equilibrium, for simple one-to-one binding.

The target of the data set is Calmodulin (UniProt P0DP23).

“Peripherin/rds PerCter C-terminal domain (from UniProt P17810)”: the Kd was 320 nM.
